Where a chain is given by its changes, count along the chain named. Names may count otherwise.
Legend:
[1] = molecular target: T1, Recombinant human Gal3 (rhGal3) (TrueBinding, #QC200361) (human, UniProt P17931 2-250); assay: cell-based or functional assay
[2] = molecular target: T1, Recombinant human Gal3 (rhGal3) …; assay: cell-based or functional assay; remark: listed apart in the source
Also: test concentration or dose not given here.

B1: F846C.1F5 (antibody, human IgG4 S228P, kappa, V domains shown)
VH: QIQLVQSGPELKKPGETVKISCKASGYTFTNYGMNWVKQAPGKGLKWMGWINTYTGEPSYADDFKGRFAFSLETSASTAYLQINNLKNEDMATYFCARWGGYDGDYYAMDYWGQGTSVTVSS
VL: NIMMTQSPSSLAVSAGEKVTMSCKSSQSVLYSSNQKNYLAWYQQKPGQSPKLLIYWASTRESGVPDRFTGSGSGTDFTLTISSVQPEDLAVYYCHQYLSSLTFGAGTKLELKR
For B1, the “% inhibition of IL-6 secretion” value [1] was -16%, the “% inhibition of TNFα secretion” value [1] was 51.7% and the “% inhibition of CD62L shedding” value [2] was 76.3%.

B2: F846C.2H3 (antibody, human IgG4 S228P, kappa, V domains shown)
VH: B1 VH
VL: B1 VL
For B2, the “% inhibition of IL-6 secretion” value [1] was -49.1%, the “% inhibition of TNFα secretion” value [1] was 62.8% and the “% inhibition of CD62L shedding” value [2] was 93.6%.

B3: F846C.1B2 (antibody, human IgG4 S228P, kappa, V domains shown)
VH: B1 VH with D103A, Y111F
VL: B1 VL with M3W, M4L, K18M, S22T, T78S, P86A
For B3, the “% inhibition of IL-6 secretion” value [1] was -9%, the “% inhibition of TNFα secretion” value [1] was 43.9% and the “% inhibition of CD62L shedding” value [2] was 99%.

B4: F846TC.16B5 (antibody, human IgG4 S228P, kappa, V domains shown)
VH: B1 VH with S59A
VL: B1 VL with P86A
With B4 the “% inhibition of IL-6 secretion” value [1] was -204%, the “% inhibition of TNFα secretion” value [1] was -11.4% and the “% inhibition of CD62L shedding” value [2] was 84.2%.

B5: F846C.1H12 (antibody, human IgG4 S228P, kappa, V domains shown)
VH: B1 VH with Y32F, M91I, D103A
VL: B1 VL with E17Q, N34S, T69S
B5 was tested, and the “% inhibition of IL-6 secretion” value [1] was 51.8%, the “% inhibition of TNFα secretion” value [1] was 95.3% and the “% inhibition of CD62L shedding” value [2] was 100%.

B6: 847.11D6 (antibody, V domains shown)
VH: EVKLQQSGPELMKPGTSMKISCKASGYSFTGYTMNWVKQSHGKNLEWIGLINPYNGGTNYNQKFRGKATLSVDKSSNTAYMELLSLTSEDSAVYYCARKDDYYGSSPYALDYWGQGTSVTVSS
VL: DIVMTQSPASLAVSLGQRATISCRASESVENHVNSFMHWFQQKPGQPPKLLIYRASNLQSGIPARFSGSGSRTDFTLTINPVEADDVATYYCQQNNEVPYTFGGGTKLEIK
B6 was tested, and the “% inhibition of IL-6 secretion” value [1] was 22.7%, the “% inhibition of TNFα secretion” value [1] was -3.1% and the “% inhibition of CD62L shedding” value [2] was 83.2%.

B7: 847.10C9 (antibody, V domains shown)
VH: EVQLQQSGAELVRPGTSVKVSCKASEYAFNNYMMEWVKQRPGQGLEWIGVINPGSGATNYNENFKDKATLTADKSSTTAYMQLSSLTSDDSAVYFCTYNDLGYWGQGTLVTVSA
VL: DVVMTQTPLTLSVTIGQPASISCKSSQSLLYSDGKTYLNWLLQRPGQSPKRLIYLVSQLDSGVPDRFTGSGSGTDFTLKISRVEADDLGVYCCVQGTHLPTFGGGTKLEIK
For B7, the “% inhibition of IL-6 secretion” value [1] was over -1000%, the “% inhibition of TNFα secretion” value [1] was -246% and the “% inhibition of CD62L shedding” value [2] was 150%.

B8: 13G4.2F8 (antibody, human IgG4 S228P, kappa, V domains shown)
VH: QVQLQQPGAELVKPGASVKLSCKASGYTFTSYWMHWVKQRPGQGLEWIGMIHPNSGSTDYNEKFKNKATLNVDKSSSTAYIQLSSLTSEDSAVYYCTRWGIYYYARDYWGQGTTLTVSS
VL: DIVMTQSQKFMSTSVGERVSITCKASQNVGTNVAWYQQKAGQSLELLIYGASNRHTGVPDRFTGSGSGTDFTLTITNVQSEDMTNYFCEQYSNFPLTFGAGTKLELKR
With B8 the “% inhibition of IL-6 secretion” value [1] was 55.1%, the “% inhibition of TNFα secretion” value [1] was 83.2% and the “% inhibition of CD62L shedding” value [2] was 94.3%.

B9: F846TC.7F10 (antibody, human IgG4 S228P, kappa, V domains shown)
VH: EVQLVESGGDLVKPGGSLKLSCAASGFTFSNYGLSWIRQTPDKRLEWVATISSGGSYTYYPDSVKGRFTISRDSAKNTLYLQMSSLKSEDTAMYYCARHAHYYGVSPYYFDYWGQGTCLTVSS
VL: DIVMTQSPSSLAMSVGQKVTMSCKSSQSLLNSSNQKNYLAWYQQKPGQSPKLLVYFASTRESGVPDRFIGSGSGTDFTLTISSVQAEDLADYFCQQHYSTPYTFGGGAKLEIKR
In the case of B9, the “% inhibition of IL-6 secretion” value [1] is reported as -2.5%, the “% inhibition of TNFα secretion” value [1] is reported as 72.3% and the “% inhibition of CD62L shedding” value [2] is reported as 96.1%.

B10: 847.27B9 (antibody, V domains shown)
VH: QIQLVQSGPELKKPGETVKISCKASGYTFTNYGMNWVKQAPGKGLKWMGWINTNTGEPTYAEEFKGRFAFSLETSASTAYLQINYLKNEDTATFFCARLDYDYDEDYWGQGTTLTVSS
VL: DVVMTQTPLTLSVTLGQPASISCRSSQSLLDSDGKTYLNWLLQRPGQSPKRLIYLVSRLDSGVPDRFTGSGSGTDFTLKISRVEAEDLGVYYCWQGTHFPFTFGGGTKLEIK
In the case of B10, the “% inhibition of IL-6 secretion” value [1] is reported as -84.7%, the “% inhibition of TNFα secretion” value [1] is reported as 70.1% and the “% inhibition of CD62L shedding” value [2] is reported as 87.9%.

B11: F846TC.14E4 (antibody, human IgG4 S228P, kappa, V domains shown)
VH: QVTLKESGPGILQPSQTLSLTCSFSGFSLSTSGMGVGWIRQPSGKGLEWLAHIWWDDDKYYNTALKSGLTISKDASKNQVFLKIASMDTADTATYYCARNLYDGSYGYYAMDYWGQGTSVTVSS
VL: DIVMTQAAFSNPVTLGTSASISCRSSKSLLHTNGITFLYWYLQKPGQSPQPLIYQMSNLASGVPDRFSSSGSGTDFTLRISRVEAEDVGVYYCAQNLELPWTFGGGTKLEINR
For B11, the “% inhibition of IL-6 secretion” value [1] was 15.7%, the “% inhibition of TNFα secretion” value [1] was 50.1% and the “% inhibition of CD62L shedding” value [2] was 90.3%.

B12: 849.1D2 (antibody, V domains shown)
VH: QVQLKESGPVLVAPSQSLSITCTVSGFSLSSYGVHWVRQPPGKGLEWLGVIWAGGSTDYDSALMSRLSISKDNSKSQVFLKMDSLQTDDTAMYYCAKPPYDYDGAWFAYWGQGTLVTVSA
VL: DVVMTQTPKFLLVSAGDRVTITCKASQSVSSDVAWYQQKPGQSPKLLIYFASNRYTGVPDRFTGSGYGTDFTFTISTVQAEDLAVYFCQHNYISPFTFGGGTKLEIK
With B12 the “% inhibition of IL-6 secretion” value [1] was 26.8%, the “% inhibition of TNFα secretion” value [1] was 37% and the “% inhibition of CD62L shedding” value [2] was 130%.

B13: 849.2D7 (antibody, V domains shown)
VH: QVQLQQSGPQLVRPGASVKISCKASGYSFTNYWMHWVKQRPGQGLEWIGMIDPSDSETRLNQKFKDKATLTVDKSSSTAYMQLSSPTSEDSAVYYCATGRPDYWGQGTTLTVSS
VL: DIVMTQSHKFMSTSVGDRVSITCKASQDVSTAVAWYQQKPGQSPKLLIYWASTRHTGVPDRFTGSGSGTDYTLTISSVQAEDLALYYCQQHYSTPYTFGGGTKLEIK
With B13 the “% inhibition of IL-6 secretion” value [1] was 39%, the “% inhibition of TNFα secretion” value [1] was 42.7% and the “% inhibition of CD62L shedding” value [2] was 78.1%.

B14: 847.20H7 (antibody, V domains shown)
VH: QVQLQQSGAELVRPGASVNLSCKASGYTFTNYWMNWVKQRPGQGLEWVGMIDPSDSETHYNQMFKDKATLTIDKSSSIAYMQLSSLTSEDSAVYYCARWGAMDYWGQGTSVTVSS
VL: B13 VL with F10I, A32T, Y36F, I48L, T94P, Y96F, G100S
B14 was tested, and the “% inhibition of IL-6 secretion” value [1] was -155%, the “% inhibition of TNFα secretion” value [1] was -185% and the “% inhibition of CD62L shedding” value [2] was 63.4%.

B15: 9H2.2H10 (antibody, human IgG4 S228P, kappa, V domains shown)
VH: QVQLQQPGAELVGPGSSVKLSCKASGYTFTNYWIHWVKQRPLQGLEWIGNIDPSDSETHYNQKFKDKATLTVDKSSSTAYMQLSSLTSEDSAVYYCARHGYYDYWGQGTTLTVSS
VL: DIVMTQSHKFMSTSVGDRVSITCKASQDVSTAVAWYQQKPGQSPKLLIYWASTRHTGVPDRFTGSGSGTDYTLTISSVQAEDLALYYCQQHYTTPLTFGAGTKLELKR
For B15, the “% inhibition of IL-6 secretion” value [1] was -99.1%, the “% inhibition of TNFα secretion” value [1] was -39.2% and the “% inhibition of CD62L shedding” value [2] was 67.7%.

B16: 6B3.2D3 (antibody, human IgG4 S228P, kappa, V domains shown)
VH: QVQLKQSGPGLVQPSQSLSITCTVSGFSLTSYGVHWVRQPPGKGLEWLGVIWSGGSTDYNAAFISRLSISKDNSKSQVFFKMNSLQADDTAIYYCAKGPYDYDLGWFAYWGQGTLVTVSA
VL: SIVMTQTPKFLLVSAGDRVTITCKASQSVSNDVAWYQQKPGQSPKLLIYYASNRYTGVPDRFTGSGYGTDFTFTISTVQAEDLAVYFCQQDYTSPYTFGGGTKLEIKR
In the case of B16, the “% inhibition of IL-6 secretion” value [1] is reported as 0.2%, the “% inhibition of TNFα secretion” value [1] is reported as -1.2% and the “% inhibition of CD62L shedding” value [2] is reported as 98.9%.

B17: F849C.8D10 (antibody, human IgG4 S228P, kappa, V domains shown)
VH: QVQLQQTGAELVKPGASVKLSCKASGYTFTSYWINWVKQRPGQGLEWIGNIYPGSSSIYYSEKFKSKATLTVDTSSSTAYMQLSSLTSDDSAVYYCARWGYWGQGTTLTVSS
VL: DVLMTQTPLSLPVSLGDQASISCRSSQDIVHSSGNTYLEWYLQKPGQSLKLLIYKVSNRFSGVPDRFSASGSGTDFTLKISRVEAEDLGVYYCFQGSHVPPTFGSGTKLEIKR
B17 was tested, and the “% inhibition of IL-6 secretion” value [1] was -75.8%, the “% inhibition of TNFα secretion” value [1] was -5.5% and the “% inhibition of CD62L shedding” value [2] was 180%.

B18: 847.15D12 (antibody, V domains shown)
VH: QVQLQQSGAELMKPGASVKISCKATGYTFTNYWIEWVKQRPGHGLEWIGEFLPGDGSSHYNEKFKGKATFTSDTSSNTAYIHLTSLTSEDSAVYYCVRDDYDSDYWAQGTTLTVSS
VL: QAVVTQESALTTSPGETVTLTCRSSTGAVTTSNYANWVQEKPDHLFTGLIGGTNNRAPGVPARFSGSLIGDKAALTITGAQTEDEAIYFCALWYSNHLVFGGGTKLTVL
With B18 the “% inhibition of IL-6 secretion” value [1] was -71.9%, the “% inhibition of TNFα secretion” value [1] was -153% and the “% inhibition of CD62L shedding” value [2] was 15.4%.

B19: 847.15H11 (antibody, V domains shown)
VH: EVQLQQSGAEVVKPGAPVKLSCKASGYTFNNYWLNWVKQRPGRGLEWIGRIDPSDSETHYNQKFKDKATLTVDMSSSTAYIQLSSLTSEDSAVYYCARGDYYYGTRGPMDYWGQGTSVTVSS
VL: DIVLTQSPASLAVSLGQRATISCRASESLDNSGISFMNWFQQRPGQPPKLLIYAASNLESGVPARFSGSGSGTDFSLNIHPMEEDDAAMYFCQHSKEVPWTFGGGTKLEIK
In the case of B19, the “% inhibition of IL-6 secretion” value [1] is reported as 94.7%, the “% inhibition of TNFα secretion” value [1] is reported as 100% and the “% inhibition of CD62L shedding” value [2] is reported as 39.3%.

B20: 847.28D1 (antibody, V domains shown)
VH: QVQLVETGPGLVAPSQSLSITCTVSGFSLTSYGVHWIRQSPGKGLEWLGTIWAGGSTDYNSPLMSRLSISKDNSKNQVFLKMNSLQIDDTAIYYCASPPSGYDYDVFASWGQGTLVTVSA
VL: DIRMTQSPASLSASVGETVTITCRASGNIHNYLAWYHQKQGKSPQLLVYNVKTLADGVPSRFSGSGSGTQFSLKINSLQPEDFGTYYCQHFWSIFPTFGGGTKLEIK
In the case of B20, the “% inhibition of IL-6 secretion” value [1] is reported as 78.6%, the “% inhibition of TNFα secretion” value [1] is reported as 80.5% and the “% inhibition of CD62L shedding” value [2] is reported as 110%.

B21: 847.3B3 (antibody, V domains shown)
VH: B20 VH with V5K, T7S, S40P, T50G, S70T, N76S, I87S, I92M, S109Y
VL: B20 VL with R3L, H37Q, N50S, V51A, N76D, I94L
B21 was tested, and the “% inhibition of IL-6 secretion” value [1] was 72.3%, the “% inhibition of TNFα secretion” value [1] was 94.3% and the “% inhibition of CD62L shedding” value [2] was 43.4%.

B22: 847.12C4 (antibody, V domains shown)
VH: QVQLKESGPDLVQPSQTLSLTCTVSGFSLTIYGVHWVRQPPGKGLEWVGTVAWDDKKYYNSPLQSRLSISRDTSKNQVFLKLSSLQTEDTAMYYCTMTGGPINYWGPGTSVTVSS
VL: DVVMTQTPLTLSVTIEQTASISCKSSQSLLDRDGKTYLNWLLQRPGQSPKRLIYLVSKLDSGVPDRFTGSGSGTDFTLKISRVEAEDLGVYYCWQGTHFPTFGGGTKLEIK
B22 was tested, and the “% inhibition of IL-6 secretion” value [1] was -0.7%, the “% inhibition of TNFα secretion” value [1] was -5.4% and the “% inhibition of CD62L shedding” value [2] was 150%.
